The values below are quoted from earlier work in paper PMC3962080.

What is called Kd is the equilibrium constant for the complex coming apart.

The series has as its target human serum albumin (Homo sapiens) (UniProt P02768).

Turning to “G148-ABD albumin-binding domain (from UniProt P06654)”, the Kd is 5 nM.
